doi:10.1101/2024.10.03.616038 (bioRxiv, 2024)

Molecular target: 6P stabilised SARS-CoV-2 spike protein (SARS-CoV-2, original (Wuhan) strain, UniProt P0DTC2, stabilised)
Test: cryo-EM structure
Conditions: both partners purified

B1: REGN10987 Fab (Fab, V domains shown)
VH: QVQLVESGGGVVQPGRSLRLSCAASGFTFSNYAMYWVRQAPGKGLEWVAVISYDGSNKYYADSVKGRFTISRDNSKNTLYLQMNSLRTEDTAVYYCASGSDYGDYLLVYWGQGTLVTVSS
VL: QSALTQPASVSGSPGQSITISCTGTSSDVGGYNYVSWYQQHPGKAPKLMIYDVSKRPSGVSNRFSGSKSGNTASLTISGLQSEDEADYYCNSLTSISTWVFGGGTKLTVL
B1: binds.
